Laboratory results reported in patent US20250108112A1.

Columns and labels:
TGFβ1 (R&D systems) = TGFβ1 (R&D systems) (UniProt P01137); assay: cell-based or functional assay
[1] = molecular target: IL2Rβ and common γ chain expressed on 32Dβ cells; assay: cell-based or functional assay

Chain of UniProt P01137 (P01137 279-390 limits assumed): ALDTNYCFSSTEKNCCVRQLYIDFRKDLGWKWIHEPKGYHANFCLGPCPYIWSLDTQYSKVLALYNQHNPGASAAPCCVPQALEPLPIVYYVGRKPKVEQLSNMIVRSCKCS

| Substance | IC50 for TGFβ1 activity in HEK-Blue TGFβ cells (QUANTI-Blue OD at 620-655 nM) (TGFβ1 (R&D systems)) [nM] | EC50 of 32Dβ cell proliferation (WST1, absorbance at 450 nM) [1] [nM] |
| --- | --- | --- |
| TGFR-Fc (R&D Systems) (Fc fusion) | 0.461 | – |
| recombinant IL-15 (from UniProt P40933 49-162) (ligand) | – | 0.0106 |
